The Immune Epitope Database (IEDB)

Assays:
HLA-B*07:02 [1] = test: IEDB peptide-MHC binding, purified MHC/competitive/radioactivity; ≥ and ≤ were set here for values at or beyond the usual limits of such assays
HLA-A*02:01 = test: as above; conditions: source organism: Plasmodium falciparum
HLA-B*07:02 [2] = test: IEDB peptide-MHC binding, purified MHC/competitive/radioactivity; filed as Kd, often an IC50 or EC50 that approximates it; ≥ and ≤ were set here for values at or beyond the usual limits of such assays; conditions: source organism: Human immunodeficiency virus 1
[3] = source organism: Human immunodeficiency virus 1

Work on CPKVSFEPI yielded an IC50 (HLA-B*07:02 [1]; [3]) of 127 nM.

For GLLGVVSTV, the IC50 (HLA-A*02:01) was 24.3 nM.

With GPKVKQWPI the Kd (HLA-B*07:02 [2]) was 5570 nM.

HPVHAGPIA gave an IC50 (HLA-B*07:02 [1]; [3]) of 57 nM.

For ILSVSSFLFV, the IC50 (HLA-A*02:01) was 208 nM.

IPIHYCAPA showed an IC50 (HLA-B*07:02 [1]; [3]) of 445 nM.

For QPRAPIRPIPT, the IC50 (HLA-B*07:02 [1]; source organism: Human herpesvirus 4 strain B95-8) was 110 nM.

RPPIFIRRL gave an IC50 (HLA-B*07:02 [1]; source organism: human gammaherpesvirus 4) of 21 nM.

In the case of TPGIRYQYNI, the Kd (HLA-B*07:02 [2]) is reported as 8620 nM.

TPYAGEPAPF was tested, and the IC50 (HLA-B*07:02 [1]; source organism: Plasmodium falciparum) was 31 nM.

WPLTEEKIKI gave a Kd (HLA-B*07:02 [2]) of 19400 nM.

YPLASLRSLF was tested, and the IC50 (HLA-B*07:02 [1]; [3]) was 408 nM.
